From patent publication US7169889B1, “Insulin prodrugs hydrolyzable in vivo to yield peglylated insulin” (priority 1999, dated 2007)
Read-outs that look alike come from different tables or passages of the source.

Assays:
male CF-1 mice [1] = conditions: bovine insulin standard; assumed potency used for calculations; cited from earlier work
pancreatectomized dogs = test: Oral activity in pancreatectomized diabetic dogs (plasma glucose and insulin); format: in vivo; conditions: for Dmax: microemulsion, N = 2
Experimental: Two dogs were used for each compound. Compounds are formulated in water in oil microemulsion and evaluated at a dose of 1-2 mg/kg. Twenty milliliters of the formulation was administered orally to each dog and the formulations were chased with 20 ml of water. Plasma glucose and insulin levels were monitored at different time intervals.

male CF-1 mice [2] = test: Mouse blood glucose assay (potency evaluation); format: in vivo; conditions: for Potency: subcutaneous injection, blood glucose 30 minutes post-dose, calculated relative to bovine insulin standard curve
Experimental: Six paired dose groups of 5 male CF-1 mice (˜25 g unfasted) received subcutaneous injections of either bovine insulin or modified insulin. Pre- and post-experimental baselines were established with two vehicle groups. An additional 25 μg/kg insulin dose group served as the internal control. Mice were terminally bled 30 minutes post-dose and blood glucose was measured with a glucometer (ONE TOUCH®). The biological potency of the modified insulin was then calculated relative to a bovine insulin standard curve.

Q: Which Potency (male CF-1 mice [1]) does the source give for “Bovine insulin: bovine insulin standard, assumed potency 27.5 IU/mg” here?
A: The Potency was 27.5 IU/mg.

Q: Which Dmax (pancreatectomized dogs; oral, dose 2 mg/kg) does the source give for Galactosamine-PEG14-insulin conjugate here?
A: Its Dmax is 52%.

Q: Which “in vivo biological activity (potency assay), in words” value (male CF-1 mice [2]; mouse blood glucose assay, Table 2) does the source give for “Insulin PEG3 Methyl Ether: insulin mono-conjugated with methyl triethylene glycol” here?
A: Its value is “best result”.

Q: And the Potency (male CF-1 mice [2])?
A: Its Potency is 43.6 IU/mg.

Q: With “Insulin PEG9 Hexanoate: insulin mono-conjugated with hydrolyzable PEG9 hexanoate ester oligomer” as the substance, how does the Potency (male CF-1 mice [2]) read?
A: Its Potency is 21.3 IU/mg.

Q: For “Insulin PEG9 Oleate: insulin mono-conjugated with hydrolyzable PEG9 oleate ester oligomer”, which Potency (male CF-1 mice [2]) is on record?
A: The Potency was 19.0 IU/mg.

Q: Which Potency (male CF-1 mice [2]) does the source give for “Insulin PEG9 Stearate: insulin mono-conjugated with hydrolyzable PEG9 stearate ester oligomer” here?
A: Its Potency is 15.3 IU/mg.

Q: Which Potency (male CF-1 mice [2]) does the source give for “Insulin PEG10 Oleyl Ether: nonhydrolyzable insulin mono-conjugate with PEG10 oleyl ether oligomer” here?
A: Its Potency is 0.0 IU/mg.

Q: For “PEG3-insulin: methyl triethylene glycol insulin conjugates formulated in microemulsion”, which Cmax (pancreatectomized dogs; dog, in vivo, po, 2 mg/kg) is on record?
A: Its Cmax is 181 μU/ml.

Q: What about the “glucose reduction, in words” value (pancreatectomized dogs; oral, formulated in microemulsion, pancreatectomized dogs) of the same substance?
A: The value was “good glucose reduction”.

Q: What about the Dmax (pancreatectomized dogs; oral, dose 2 mg/kg) of the same substance?
A: The Dmax was 62%.

Q: Which Dmax (pancreatectomized dogs; oral, dose 1 mg/kg) does the source give for “PEG3-oleate-insulin conjugate: insulin conjugated with hydrolyzable triethylene glycol oleate oligomer, in microemulsion” here?
A: The Dmax was 49%.
